In PMC6178561:
Like-named read-outs stand apart in the source and are kept apart here.

Key:
[1] = molecular target: HA-InR^intra (intracellular domain of insulin receptor including the kinase domain) (Drosophila) (UniProt P09208); assay: proximity ligation
[2] = molecular target: HA-InR^intra (intracellular domain of insulin receptor including the kinase domain) (Drosophila) (UniProt P09208); assay: proximity ligation; remark: listed apart in the source

Sequence of UniProt P09208 (P09208 1086-2144): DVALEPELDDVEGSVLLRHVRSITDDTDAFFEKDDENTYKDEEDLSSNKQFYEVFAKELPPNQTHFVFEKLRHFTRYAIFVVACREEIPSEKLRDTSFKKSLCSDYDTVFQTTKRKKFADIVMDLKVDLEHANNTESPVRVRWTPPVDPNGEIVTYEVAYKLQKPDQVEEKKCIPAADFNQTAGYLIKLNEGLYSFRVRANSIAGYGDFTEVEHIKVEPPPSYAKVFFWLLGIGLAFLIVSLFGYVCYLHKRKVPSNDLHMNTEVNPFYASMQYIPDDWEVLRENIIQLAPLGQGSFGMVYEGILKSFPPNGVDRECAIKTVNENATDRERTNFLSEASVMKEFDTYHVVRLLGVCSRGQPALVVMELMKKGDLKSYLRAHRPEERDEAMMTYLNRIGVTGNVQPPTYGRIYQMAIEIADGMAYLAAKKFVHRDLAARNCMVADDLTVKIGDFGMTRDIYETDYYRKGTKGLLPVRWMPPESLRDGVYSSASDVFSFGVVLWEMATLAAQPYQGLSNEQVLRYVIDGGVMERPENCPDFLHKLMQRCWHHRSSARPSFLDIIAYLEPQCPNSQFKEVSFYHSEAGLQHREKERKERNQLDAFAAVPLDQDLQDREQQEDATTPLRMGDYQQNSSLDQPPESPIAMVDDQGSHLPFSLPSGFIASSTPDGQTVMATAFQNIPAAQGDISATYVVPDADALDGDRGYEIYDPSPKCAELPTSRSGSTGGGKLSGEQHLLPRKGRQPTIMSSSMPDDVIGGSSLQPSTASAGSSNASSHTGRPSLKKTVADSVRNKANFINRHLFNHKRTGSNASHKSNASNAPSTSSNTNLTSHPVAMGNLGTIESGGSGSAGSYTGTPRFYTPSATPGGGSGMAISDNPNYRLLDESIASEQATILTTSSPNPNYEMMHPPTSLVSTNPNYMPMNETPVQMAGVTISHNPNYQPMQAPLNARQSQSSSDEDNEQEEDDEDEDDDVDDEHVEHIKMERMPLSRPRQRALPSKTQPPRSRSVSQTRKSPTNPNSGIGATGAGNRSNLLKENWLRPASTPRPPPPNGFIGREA

PLA foci per cell (average) (PLA foci per cell) [1]	percent of cells with PLA signal [1] [%]	percent of cells with moderate PLA signals (11-30 foci) [1] [%]	percent of cells with strong PLA signals (>30 foci) [1] [%]	percent of cells with weak PLA signals (≤10 foci) [1] [%]	percent of cells with PLA signal [2] [%]	percent of cells with moderate PLA signals [2] [%]	percent of cells with strong PLA signals [2] [%]	percent of cells with weak PLA signals [2] [%]	Molecule
12.8	90.9	41.8	12.7	36.4	–	–	–	–	Myc-Hsp83 (heat shock protein 83) (from UniProt P02828 1-717) (natural protein)
–	–	–	–	–	86.8	31.4	4.1	51.3	Myc-Cdc37 (cell division cycle 37) (natural protein) MVDYSKWKNIEISDDEDDTHPNIDTPSLFRWRHQARVERMAEMDHEKDELKKKRQSYQARLMDVKERISKKDGDEEALKKELEKIEAEGKELDRIESEMIKKEKKTPWNVDTISKPGFEKTVINKKAGRKPDENLSEEEREQRMKQFVKENEKLCQQYGMLRKYDDSKRFLQEHLHLVGEETANYLVIWSINLEMEEKHELMAHVAHQCICMQYILELAKQLDVDPRACVSSFFSKIQHCHPEYRAQFDSEIEGFKGRIQKRAQEKIQEAIAQAEEEERKERLGPGGLDPADVFESLPDELKACFESRDVELLQKTIAAMPVDVAKLHMKRCVDSGLWVPNAADLEGDKKEEDDSDDVAGGEEKTDDAKSESAAKEEPIYTGVSTEDVD
